Patent publication US20170007671A1

Target: Neuregulin-1 receptors (ErbB3 or ErbB4) on MCF-7 human breast cancer cells
Assay: cell-based or functional assay

B1: recombinant human Neuregulin-1 (rhNRG-1) (ligand)
chain: SHLVKCAEKEKTFCVNGGECFMVKDLSNPSRYLCKCPNEFTGDRCQNYVMASFYKAEELYQ
Biological activity; ErbB2 phosphorylation ELISA on MCF-7 cell lysates; Reference Sample (0 g/L HSA): 1500 U
Biological activity; ErbB2 phosphorylation ELISA on MCF-7 cell lysates; Sample A (0.5 g/L HSA): 1730 U
Biological activity; ErbB2 phosphorylation ELISA on MCF-7 cell lysates; Sample B (2 g/L HSA): 3500 U
Biological activity; ErbB2 phosphorylation ELISA on MCF-7 cell lysates; Sample C (8 g/L HSA): 4000 U
EC50 value; ErbB2 phosphorylation ELISA on MCF-7 cell lysates; Reference Sample (0 g/L HSA): 0.0505
EC50 value; ErbB2 phosphorylation ELISA on MCF-7 cell lysates; Sample A (0.5 g/L HSA): 0.0439
EC50 value; ErbB2 phosphorylation ELISA on MCF-7 cell lysates; Sample B (2 g/L HSA): 0.0217
EC50 value; ErbB2 phosphorylation ELISA on MCF-7 cell lysates; Sample C (8 g/L HSA): 0.0189
OD50 value; ErbB2 phosphorylation ELISA on MCF-7 cell lysates; Reference Sample (0 g/L HSA): 0.391 OD
OD50 value; ErbB2 phosphorylation ELISA on MCF-7 cell lysates; Sample A (0.5 g/L HSA): 0.393 OD
OD50 value; ErbB2 phosphorylation ELISA on MCF-7 cell lysates; Sample B (2 g/L HSA): 0.406 OD
OD50 value; ErbB2 phosphorylation ELISA on MCF-7 cell lysates; Sample C (8 g/L HSA): 0.424 OD
Standard sample EC50/sample EC50; ErbB2 phosphorylation ELISA on MCF-7 cell lysates; Sample A (0.5 g/L HSA) against Reference Sample: 1.15
Standard sample EC50/sample EC50; ErbB2 phosphorylation ELISA on MCF-7 cell lysates; Sample B (2 g/L HSA) against Reference Sample: 2.33
Standard sample EC50/sample EC50; ErbB2 phosphorylation ELISA on MCF-7 cell lysates; Sample C (8 g/L HSA) against Reference Sample: 2.67
specific activity; ErbB2 phosphorylation ELISA on MCF-7 cell lysates; Reference Sample (0 g/L HSA): 6000 U/mg
specific activity; ErbB2 phosphorylation ELISA on MCF-7 cell lysates; Sample A (0.5 g/L HSA): 6900 U/mg
specific activity; ErbB2 phosphorylation ELISA on MCF-7 cell lysates; Sample B (2 g/L HSA): 14000 U/mg
specific activity; ErbB2 phosphorylation ELISA on MCF-7 cell lysates; Sample C (8 g/L HSA): 16000 U/mg
